Where only a bound is given, the exact number is not on record here.

In data set [1] the test system is KsCcr. Kind of data set: HPLC analysis of reaction products: 2-HMB-CoA formed over total products from crotonyl-CoA and formaldehyde. The class given is biochemical, Kitasatospora setae. The settings on record: for Ratio of 2-HMB-CoA formed over total products: triplicates, mean ± standard deviation, values given as %. From the text: KsCcr wild-type (WT) natively promotes the NADPH-dependent reductive carboxylation of crotonyl-CoA into ethylmalonyl-CoA. […] Under these conditions, neither ethylmalonyl-CoA (carboxylation product) nor butyryl-CoA (reduction side product) were detected with LC-MS (see Table 2 further below). […] The compound was isolated and its structure was further verified using 2-dimensional NMR and high-resolution MS experiments. […] The newly introduced carbon was also observed in the ^13C-NMR experiment, confirming formation of aldol product 2-HMB-CoA by KsCcr.
The reaction was diluted 10 times into 5% methanol/Buffer 8.1 and analyzed by HPLC over an Agilent Eclipse Plus C18, 3.5 μm 100 Å, 100×2.1 mm, […] column using 5% to 30% acetonitrile gradient over 7.5 min with 25 mM ammonium formate pH=8.1 as the aqueous phase.

Data set [2] has as its system KsCcr. Kind of data set: Reductive aldol reaction with longer chain aldehydes (acetaldehyde, propionaldehyde): product share and diastereomeric ratio by LC-MS. The class given is biochemical, Kitasatospora setae. On the procedure: The reaction catalyzed by KsCcr generates an (S)-configured stereocenter at the α-position of the reaction product. When using higher substituted aldehydes, a second stereocenter would be generated at the β-position, which would be highly interesting for synthetic organic applications. It was first tested, whether KsCcr would accept longer chain aldehydes. Indeed, in the presence of 500 mM acetaldehyde, the enzyme formed 35% of 2-ethyl-3-hydroxybutyryl-CoA (2-EHB-CoA) over total products, with substantial amounts of butyryl-CoA as a side product. To improve yield, an acyl-CoA oxidase was used to continually recycle the side product butyryl-CoA back into the substrate crotonyl-CoA. With this proof-reading strategy the yield of the reaction could be increased up to 72%. High resolution mass spectrometry together with ^1H^−1H COSY and ^13C-NMR experiments confirmed the structure of 2-EHB-CoA.
To determine the stereochemistry at the β-position the reaction was analyzed by LC-MS and compared the retention times to chemically synthesized (2S,3R)-EHB-CoA and (2S,3S)-EHB-CoA standards.
Determination of CoA esters was performed using a HRES-LC-MS. The chromatographic separation was performed on an Thermo Scientific Vanquish HPLC System using a Kinetex Evo C18 column ([…], 100 Å, 1.7 μm, Phenomenexc) equipped with a 20×2.1 mm guard column of similar specificity at a constant eluent flow rate of 0.3 mL/min and a column temperature of 40° C. with eluent A being 50 mM ammonium formate pH=8.1 and eluent B being MeOH (Honeywell) The injection volume was 1 μl. […]

B1: KsCcr variant His365Asn: KsCcr active site variant His365Asn, SEQ ID NO: 19 (protein)
chain: MQEILDAILSGDAASADYAALALPESYRAVTLHKGEERMFDGLASRDKDPRKSLHLDDVPLPELGPGEALVAVMASSVNYNTVWSSIFEPVSTFGFLERYGRLSPLTARHDLPYHVLGSDLAGVVLRTGAGVNAWKPGDEVVAHCLSVELESPDGHNDTMMDPEQRIWGFETNFGGLAQLALVKTNQLLPKPKHLTWEEAASPGLVNSTAYRQLVSRNGAGLKQGDNVLIWGASGGLGSYATQYALAGGATPICVVSSPRKADICRAMGAEAIIDRSAEGYRFWKDEHHQDPREWKRLGGKIREFTGGEDVDIVFEHPGRETFGASVYVTRKGGTIVTCASTSGYMHQYDNRYLWMSLKRIVGSNFANYREAFEANRLVAKGKIHPTLSKVYALEETGQAALDVHHNKHQGKVGVLCLAPREGLGVTDPELRSKHLTKINAFRNV
modifications: KsCcr variant His365Asn
Turning to B1, the “Ratio of 2-HMB-CoA formed over total products” value (shortened to “Ratio of 2-HMB-CoA formed”) in data set [1] (5 mM formaldehyde) worked out at 42 ± 1; in data set [1] (75 mM formaldehyde), 89 ± 0. In data set [1] (75 mM formaldehyde), the “2-HMB-CoA produced (reductive aldol product)” value amounted to 89%.

B2: KsCcr variant Thr82Asp: KsCcr variant Thr82Asp, SEQ ID NO: 21 (protein)
chain: MQEILDAILSGDAASADYAALALPESYRAVTLHKGEERMFDGLASRDKDPRKSLHLDDVPLPELGPGEALVAVMASSVNYNDVWSSIFEPVSTFGFLERYGRLSPLTARHDLPYHVLGSDLAGVVLRTGAGVNAWKPGDEVVAHCLSVELESPDGHNDTMMDPEQRIWGFETNFGGLAQLALVKTNQLLPKPKHLTWEEAASPGLVNSTAYRQLVSRNGAGLKQGDNVLIWGASGGLGSYATQYALAGGATPICVVSSPRKADICRAMGAEAIIDRSAEGYRFWKDEHHQDPREWKRLGGKIREFTGGEDVDIVFEHPGRETFGASVYVTRKGGTIVTCASTSGYMHQYDNRYLWMSLKRIVGSHFANYREAFEANRLVAKGKIHPTLSKVYALEETGQAALDVHHNKHQGKVGVLCLAPREGLGVTDPELRSKHLTKINAFRNV
modifications: KsCcr variant Thr82Asp
Regarding B2, in data set [1] (5 mM formaldehyde), the “Ratio of 2-HMB-CoA formed” value is on record as 14 ± 1. In data set [1] (75 mM formaldehyde), the “2-HMB-CoA produced (reductive aldol product)” value turned out to be 57% and the “Ratio of 2-HMB-CoA formed” value was 57 ± 1.

B3: KsCcr variant Ser119Ala: KsCcr variant Ser119Ala, SEQ ID NO: 22 (protein)
chain: MQEILDAILSGDAASADYAALALPESYRAVTLHKGEERMFDGLASRDKDPRKSLHLDDVPLPELGPGEALVAVMASSVNYNTVWSSIFEPVSTFGFLERYGRLSPLTARHDLPYHVLGADLAGVVLRTGAGVNAWKPGDEVVAHCLSVELESPDGHNDTMMDPEQRIWGFETNFGGLAQLALVKTNQLLPKPKHLTWEEAASPGLVNSTAYRQLVSRNGAGLKQGDNVLIWGASGGLGSYATQYALAGGATPICVVSSPRKADICRAMGAEAIIDRSAEGYRFWKDEHHQDPREWKRLGGKIREFTGGEDVDIVFEHPGRETFGASVYVTRKGGTIVTCASTSGYMHQYDNRYLWMSLKRIVGSHFANYREAFEANRLVAKGKIHPTLSKVYALEETGQAALDVHHNKHQGKVGVLCLAPREGLGVTDPELRSKHLTKINAFRNV
modifications: KsCcr variant Ser119Ala
For the molecule B3, the “Ratio of 2-HMB-CoA formed” value in data set [1] (5 mM formaldehyde) was 37 ± 3. In data set [1] (75 mM formaldehyde), the “2-HMB-CoA produced (reductive aldol product)” value is listed as 83% and the “Ratio of 2-HMB-CoA formed” value was 83 ± 0.

B4: KsCcr variant Glu171Ala: KsCcr variant Glu171Ala, SEQ ID NO: 24 (protein)
chain: MQEILDAILSGDAASADYAALALPESYRAVTLHKGEERMFDGLASRDKDPRKSLHLDDVPLPELGPGEALVAVMASSVNYNTVWSSIFEPVSTFGFLERYGRLSPLTARHDLPYHVLGSDLAGVVLRTGAGVNAWKPGDEVVAHCLSVELESPDGHNDTMMDPEQRIWGFATNFGGLAQLALVKTNQLLPKPKHLTWEEAASPGLVNSTAYRQLVSRNGAGLKQGDNVLIWGASGGLGSYATQYALAGGATPICVVSSPRKADICRAMGAEAIIDRSAEGYRFWKDEHHQDPREWKRLGGKIREFTGGEDVDIVFEHPGRETFGASVYVTRKGGTIVTCASTSGYMHQYDNRYLWMSLKRIVGSHFANYREAFEANRLVAKGKIHPTLSKVYALEETGQAALDVHHNKHQGKVGVLCLAPREGLGVTDPELRSKHLTKINAFRNV
modifications: KsCcr variant Glu171Ala
For the molecule B4, the results for the “Ratio of 2-HMB-CoA formed” value in data set [1] (5 mM formaldehyde) and in data set [1] (75 mM formaldehyde) were 43 ± 0 and 89 ± 0, respectively.

B5: KsCcr WT: wild type crotonyl-CoA carboxylase/reductase obtained from Kitasatospora setae, SEQ ID NO: 1 (protein)
chain: MQEILDAILSGDAASADYAALALPESYRAVTLHKGEERMFDGLASRDKDPRKSLHLDDVPLPELGPGEALVAVMASSVNYNTVWSSIFEPVSTFGFLERYGRLSPLTARHDLPYHVLGSDLAGVVLRTGAGVNAWKPGDEVVAHCLSVELESPDGHNDTMMDPEQRIWGFETNFGGLAQLALVKTNQLLPKPKHLTWEEAASPGLVNSTAYRQLVSRNGAGLKQGDNVLIWGASGGLGSYATQYALAGGATPICVVSSPRKADICRAMGAEAIIDRSAEGYRFWKDEHHQDPREWKRLGGKIREFTGGEDVDIVFEHPGRETFGASVYVTRKGGTIVTCASTSGYMHQYDNRYLWMSLKRIVGSHFANYREAFEANRLVAKGKIHPTLSKVYALEETGQAALDVHHNKHQGKVGVLCLAPREGLGVTDPELRSKHLTKINAFRNV
modifications: Kitasatospora setae KsCCR crotonyl-CoA carboxylase/reductase
Turning to B5, the entries for the “Ratio of 2-HMB-CoA formed” value in data set [1] (5 mM formaldehyde) and in data set [1] (75 mM formaldehyde) were 72 ± 1± and 96 ± 0, respectively. This molecule also registered an aldol product generated in data set [1] (ambient conditions, CO2 not strictly avoided) of over 95%. In addition, the “yield of the reaction (2-EHB-CoA)” value in data set [2] (500 mM acetaldehyde with acyl-CoA oxidase recycling butyryl-CoA to crotonyl-CoA (proof-reading)) is recorded as “up to 72%”. Besides, the “2-ethyl-3-hydroxybutyryl-CoA (2-EHB-CoA) over total products” value in data set [2] (500 mM acetaldehyde, butyryl-CoA as side product) turned out to be 35%. Moreover, the conversion with propionaldehyde entry in data set [2] (compared with formaldehyde or acetaldehyde, product detected by MS) is reported as “strongly decreased”.

B6: KsCcr variant Asn81Asp: KsCcr active site variant Asn81Asp, no SEQ ID given (protein)
chain: MQEILDAILSGDAASADYAALALPESYRAVTLHKGEERMFDGLASRDKDPRKSLHLDDVPLPELGPGEALVAVMASSVNYDTVWSSIFEPVSTFGFLERYGRLSPLTARHDLPYHVLGSDLAGVVLRTGAGVNAWKPGDEVVAHCLSVELESPDGHNDTMMDPEQRIWGFETNFGGLAQLALVKTNQLLPKPKHLTWEEAASPGLVNSTAYRQLVSRNGAGLKQGDNVLIWGASGGLGSYATQYALAGGATPICVVSSPRKADICRAMGAEAIIDRSAEGYRFWKDEHHQDPREWKRLGGKIREFTGGEDVDIVFEHPGRETFGASVYVTRKGGTIVTCASTSGYMHQYDNRYLWMSLKRIVGSHFANYREAFEANRLVAKGKIHPTLSKVYALEETGQAALDVHHNKHQGKVGVLCLAPREGLGVTDPELRSKHLTKINAFRNV
On to B6, for which the “Ratio of 2-HMB-CoA formed” value in data set [1] (5 mM formaldehyde) is on record as 1 ± 0; in data set [1] (75 mM formaldehyde), 11 ± 0.
